First the molecules themselves.
B1: GFP-Sox2 (natural protein)
chain: not shown
B2: GFP-Nanog (natural protein, UniProt Q80Z64 1-305, looked up)
chain: MSVGLPGPHSLPSSEEASNSGNASSMPAVFHPENYSCLQGSATEMLCTEAASPRPSSEDLPLQGSPDSSTSPKQKLSSPEADKGPEEEENKVLARKQKMRTVFSQAQLCALKDRFQKQKYLSLQQMQELSSILNLSYKQVKTWFQNQRMKCKRWQKNQWLKTSNGLIQKGSAPVEYPSIHCSYPQGYLVNASGSLSMWGSQTWTNPTWSSQTWTNPTWNNQTWTNPTWSSQAWTAQSWNGQPWNAAPLHNFGEDFLQPYVQLQQNFSASDLEVNLEATRESHAHFSTPQALELFLNYSVTPPGEI
B3: mCherry-Nanog (natural protein, UniProt Q80Z64 1-305, looked up)
chain: B2 chain

The series “mCherry-Nanog” concerns the target B3. Description: fluorescence cross-correlation spectroscopy.
Series [1] concerns the molecule itself. Description: fluorescence correlation spectroscopy.
Series [2] deals with the molecule itself. The experiment in a line: fluorescence correlation spectroscopy. The source holds these as a separate data set.
Series [3] deals with the molecule itself. The experiment in a line: fluorescence correlation spectroscopy. The source holds these as a separate data set.

B1 showed a complex % in the series with mCherry-Nanog of 26.1%.

Consider B2, for which the GFP-Nanog/GFP brightness ratio in series [1] was around 1.5. The complex % with mCherry-Nanog worked out at 19.8%. The “stoichiometry N” value in series [2] amounted to 2.

Regarding B3, the mCherry-Nanog/mCherry brightness ratio in series [3] is around 2.

What is called stoichiometry N is a count of units in the complex or per binding partner.

Values taken from doi:10.1101/2020.06.24.169185 (bioRxiv, 2020).
